Assay [1] has as its target T1, human IL-6 (human, UniProt P05231 30-212). As to the kind of experiment: cell-based or functional assay.
In assay [2] the target is T2, cyno IL-6 (cynomolgus monkey, UniProt P79341 28-212, limits assumed).
T2 sequence (looked up): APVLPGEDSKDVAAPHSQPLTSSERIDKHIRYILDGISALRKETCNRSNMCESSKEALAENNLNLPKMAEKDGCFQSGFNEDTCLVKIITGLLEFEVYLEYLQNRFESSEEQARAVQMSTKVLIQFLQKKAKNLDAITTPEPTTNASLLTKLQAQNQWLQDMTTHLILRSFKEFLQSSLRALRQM
As to the kind of experiment: cell-based or functional assay.

In assay [3] the target is T3, human TNF-α (human, UniProt P01375 77-233). The assay can be described thus: cell-based or functional assay.
Assay [4] concerns the target T4, cyno TNF-α (cynomolgus monkey, UniProt P79337 77-233). As to the kind of experiment: cell-based or functional assay.
Assay [5] has as its target T1, human IL-6. The assay can be described thus: cell-based or functional assay. This is another data set of the same source.
For assay [6], the target named is T2, cyno IL-6. As to the kind of experiment: cell-based or functional assay. The source holds these as a separate data set.
The target in assay [7] is T3, human TNF-α. As to the kind of experiment: cell-based or functional assay. This is another data set of the same source.
In assay [8] the target is T4, cyno TNF-α. The assay can be described thus: cell-based or functional assay. This is another data set of the same source.
For assay [9], the target named is T4, cyno TNF-α. The assay can be described thus: in-solution affinity, Gyrolab. The protocol: (§1) Fitting of the dilution series was done using Gyrolab Analysis software, where KD- and receptor-controlled curves were analyzed to determine the KD value.
Assay [10] deals with T5, human serum albumin (human, UniProt P02768 25-609).
T5 construct: also called HSA; human SA
As to the kind of experiment: in-solution affinity, Gyrolab. As to the method: as §1

The target in assay [11] is T6, cyno serum albumin (cynomolgus monkey, UniProt A2V9Z4 25-608).
T6 construct: also called cyno SA
The assay can be described thus: in-solution affinity, Gyrolab. The protocol:
as §1

Assay [12] concerns the target T7, mouse serum albumin (mouse, UniProt P07724 25-608).
T7 construct: also called mouse SA
As to the kind of experiment: in-solution affinity, Gyrolab. The protocol: as §1

Assay [13] has as its target T8, human CD30L (human, UniProt P32971 63-234, limits assumed).
T8 sequence (looked up): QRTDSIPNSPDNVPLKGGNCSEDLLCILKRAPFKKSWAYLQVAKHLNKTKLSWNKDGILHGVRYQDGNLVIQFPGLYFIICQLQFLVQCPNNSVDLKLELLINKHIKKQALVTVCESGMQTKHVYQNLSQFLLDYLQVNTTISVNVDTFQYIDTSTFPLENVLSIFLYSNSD
As to the kind of experiment: SPR (ProteOn XPR36), target immobilized.

Assay [14] addresses T9, human CD40L (human, UniProt P29965 113-261, limits assumed).
T9 sequence (looked up): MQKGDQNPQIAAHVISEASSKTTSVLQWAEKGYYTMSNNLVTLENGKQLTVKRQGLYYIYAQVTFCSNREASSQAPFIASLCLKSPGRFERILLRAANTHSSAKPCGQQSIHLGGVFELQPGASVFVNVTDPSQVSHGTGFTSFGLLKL
As to the kind of experiment: SPR (ProteOn XPR36), target immobilized.

Assay [15] deals with T10, human IL23 (human, UniProt Q9NPF7 20-189; P29460 23-328).
T10 sequence (looked up) 1: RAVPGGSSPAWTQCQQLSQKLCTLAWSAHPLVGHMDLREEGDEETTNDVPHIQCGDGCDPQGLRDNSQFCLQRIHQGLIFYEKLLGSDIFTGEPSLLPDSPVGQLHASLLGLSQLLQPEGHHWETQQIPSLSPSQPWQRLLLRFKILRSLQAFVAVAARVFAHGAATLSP
T10 sequence (looked up) 2: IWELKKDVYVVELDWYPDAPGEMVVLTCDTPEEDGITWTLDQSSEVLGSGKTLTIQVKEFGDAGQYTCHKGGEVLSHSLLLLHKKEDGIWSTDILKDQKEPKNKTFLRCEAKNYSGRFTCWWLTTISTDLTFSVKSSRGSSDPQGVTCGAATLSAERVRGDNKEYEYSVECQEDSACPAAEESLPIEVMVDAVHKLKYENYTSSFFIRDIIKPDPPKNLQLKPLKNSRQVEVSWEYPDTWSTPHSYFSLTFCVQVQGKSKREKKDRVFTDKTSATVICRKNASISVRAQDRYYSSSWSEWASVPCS
The assay can be described thus: SPR (ProteOn XPR36), target immobilized.

Assay [16] addresses T11, human CNTF (human, UniProt P26441 2-200).
T11 construct: also called ciliary neurotrophic factor
T11 sequence (looked up): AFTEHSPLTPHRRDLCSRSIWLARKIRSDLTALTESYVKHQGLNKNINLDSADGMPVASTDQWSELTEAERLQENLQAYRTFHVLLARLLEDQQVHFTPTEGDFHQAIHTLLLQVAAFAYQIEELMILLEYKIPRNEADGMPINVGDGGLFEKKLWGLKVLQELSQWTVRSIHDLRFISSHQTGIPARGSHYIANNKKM
The assay can be described thus: SPR (ProteOn XPR36), target immobilized.

In assay [17] the target is T12, human IL11 (human, UniProt P20809 22-199).
T12 sequence (looked up): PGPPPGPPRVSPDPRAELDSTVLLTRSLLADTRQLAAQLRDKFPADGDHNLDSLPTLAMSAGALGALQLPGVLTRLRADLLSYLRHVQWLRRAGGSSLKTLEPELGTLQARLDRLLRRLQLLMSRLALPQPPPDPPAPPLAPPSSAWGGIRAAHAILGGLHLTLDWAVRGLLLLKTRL
As to the kind of experiment: SPR (ProteOn XPR36), target immobilized.

The target of assay [18] is T13, human membrane TNFα expressed on HEK293H cells (human, UniProt P01375 1-233).
T13 construct: whole, on cells; also called membrane expressed TNFα
As to the kind of experiment: flow cytometry, HEK293H cells expressing human membrane TNFα, without HSA, 24 h. As to the method: Briefly, cells were fixed with 4% paraformaldehyde and 0.1% glutaraldehyde in PBS (to increase detection of membrane bound TNFα). […] Cells were washed 3 times and subsequently incubated with an anti-VHH mAb (ABH00119) for 30 min at 4° C., washed again, and incubated for 30 min at 4° C. with a goat anti-mouse or anti-human PE labeled antibody. Samples were washed and resuspended in FACS Buffer (D-PBS with 10% FBS and 0.05% sodium azide supplemented with 5 nM TOPRO3). Cell suspensions were then analyzed on an iQuescreener. EC50 values were calculated using GraphPad Prism.

Several values for one entry are separate records, joined by “and”; a condition that tells them apart may be missing. Equal values may be shown once.

T13 sequence (P01375 whole entry): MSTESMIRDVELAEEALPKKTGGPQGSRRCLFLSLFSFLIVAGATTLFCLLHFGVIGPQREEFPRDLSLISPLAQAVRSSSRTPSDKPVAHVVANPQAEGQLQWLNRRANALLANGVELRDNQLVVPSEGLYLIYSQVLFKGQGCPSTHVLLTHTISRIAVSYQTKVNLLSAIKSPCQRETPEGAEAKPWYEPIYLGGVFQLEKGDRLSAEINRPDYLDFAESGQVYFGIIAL
T3 sequence (P01375 77-233 limits assumed): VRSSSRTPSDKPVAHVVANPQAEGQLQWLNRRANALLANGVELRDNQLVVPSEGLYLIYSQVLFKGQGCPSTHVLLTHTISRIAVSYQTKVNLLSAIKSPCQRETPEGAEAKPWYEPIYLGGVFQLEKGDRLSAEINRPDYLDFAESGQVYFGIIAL
T4 sequence (P79337 77-233 limits assumed): as the sequence (P01375 77-233 limits assumed) above, with L37V, R44T, T72N, R138L counted along it
T5 sequence (P02768 25-609 limits assumed): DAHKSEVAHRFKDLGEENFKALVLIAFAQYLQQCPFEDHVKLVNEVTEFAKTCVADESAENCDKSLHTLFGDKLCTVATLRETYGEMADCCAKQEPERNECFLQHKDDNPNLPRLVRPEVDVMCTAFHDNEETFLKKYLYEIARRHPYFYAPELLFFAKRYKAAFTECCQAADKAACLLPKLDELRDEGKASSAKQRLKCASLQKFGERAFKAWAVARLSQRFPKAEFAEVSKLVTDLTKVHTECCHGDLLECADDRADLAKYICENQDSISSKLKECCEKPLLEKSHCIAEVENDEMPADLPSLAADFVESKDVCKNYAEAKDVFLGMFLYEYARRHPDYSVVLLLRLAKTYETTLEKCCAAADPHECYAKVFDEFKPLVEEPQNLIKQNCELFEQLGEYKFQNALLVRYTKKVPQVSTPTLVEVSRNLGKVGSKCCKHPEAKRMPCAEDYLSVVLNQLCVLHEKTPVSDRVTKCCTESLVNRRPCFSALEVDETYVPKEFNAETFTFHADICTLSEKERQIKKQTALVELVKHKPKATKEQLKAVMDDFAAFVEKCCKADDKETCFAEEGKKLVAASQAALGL
T6 sequence (A2V9Z4 25-608 limits assumed): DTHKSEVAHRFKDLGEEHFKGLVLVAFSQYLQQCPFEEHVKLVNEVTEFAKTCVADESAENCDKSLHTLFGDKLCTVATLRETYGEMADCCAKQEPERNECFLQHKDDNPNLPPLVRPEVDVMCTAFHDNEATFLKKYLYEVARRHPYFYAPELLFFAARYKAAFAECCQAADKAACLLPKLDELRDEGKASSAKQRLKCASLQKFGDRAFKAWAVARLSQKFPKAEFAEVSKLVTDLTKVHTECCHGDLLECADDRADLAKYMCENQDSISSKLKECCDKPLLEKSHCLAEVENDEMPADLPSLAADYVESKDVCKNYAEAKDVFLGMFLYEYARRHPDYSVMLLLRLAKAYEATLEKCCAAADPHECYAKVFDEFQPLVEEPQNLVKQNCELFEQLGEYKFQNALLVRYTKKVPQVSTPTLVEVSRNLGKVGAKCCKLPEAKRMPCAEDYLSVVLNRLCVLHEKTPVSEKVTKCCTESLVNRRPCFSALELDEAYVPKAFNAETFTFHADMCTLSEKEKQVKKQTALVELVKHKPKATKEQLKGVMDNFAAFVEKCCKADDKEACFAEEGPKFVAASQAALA

B1: F027201062 (bispecific antibody)
chain: DVQLVESGGGVVQPGGSLRLSCAASGRTFSNYAMAWFRQAPGKEREFVAVISYAGGRTYYADSVKGRFTISRDNAKNTVYLQMNSLRPEDTALYYCAAVDSPLIATHPRGYDYWGQGTLVTVSSGGGGSGGGSEVQLVESGGGVVQPGGSLRLSCAASGFTFRSFGMSWVRQAPGKGPEWVSSISGSGSDTLYADSVKGRFTISRDNSKNTLYLQMNSLRPEDTALYYCTIGGSLSRSSQGTLVTVSSGGGGSGGGSEVQLVESGGGVVQPGGSLRLSCAASGFTLAYYAIGWFRQAPGKEREGVSCISGSVGTTYYADSVKGRFTISRDNAKNTVYLQMNSLRPEDTALYYCVRSSWFDCGVQGRDLGNEYDYRGQGTLVTVSSGGGGSGGGSEVQLVESGGGVVQPGGSLRLSCTASGFTFSTADMGWFRQAPGKGREFVARISGIDGTTYYDEPVKGRFTISRDNSKNTVYLQMNSLRPEDTALYYCRSPRYADQWSAYDYWGQGTLVKVSSA
notes: anti-IL-6 (17C04, 6B12), anti-HSA (ALB23002), anti-TNF-α (6C11), C-terminal alanine; produced in Pichia pastoris; also called ISVD construct F027201062; Nanobody F027201062
For the molecule B1, the “IC50 of IL-17A/sIL-6R induced VEGF-A release, RA-FLS” value in [1] turned out to be 2 nM. Besides, the “average IC50, IL-6 induced TF-1 proliferation” value worked out at 0.034 nM in [1] and 0.056 nM in assay [2]. Besides, in assay [3], the “IC50 of SEB-induced CCL4 release, human whole blood” value came to 0.92 nM. In [3], the “IC50 of SEB-induced MCP-1 release, human whole blood” value amounted to 3.2 nM. The “average IC50, NFκB reporter assay” value in [3] was found to be 0.053 nM; in assay [4], 0.158 nM. In addition, in [5], the “Ratio IC50 reference anti-IL-6 mAb1/Nb” value worked out at 2.4 ratio. For the same molecule, in assay [5], the “hIL-6 TF1 proliferation assay (IC50, pM)” value came out at 134 pM. Besides, in assay [6], the “cyno IL-6 TF1 proliferation assay (IC50, pM)” value was 65 pM. The “Ratio IC50 reference anti-TNF-α mAb/Nb” value in [7] came to 0.67 ratio. Besides, the “hTNF-α Nfkb assay (IC50, pM)” value in [7] came out at 98 pM. Further, the “cyno TNF-α NFkb assay (IC50, pM)” value in [8] stood at 193 pM. Besides, the dissociation constant (Kd) was 0.0538 nM and 0.0237 nM and 0.0259 nM in [9]; 7.6 nM and 6.4 nM and 6.2 nM in assay [10]; 6.7 nM and 4.9 nM and 6.1 nM in assay [11]; 58.5 nM and 62.2 nM and 56 nM in assay [12]. Besides, the binding result in [13], in [14], in assay [15], in assay [16] and in [17] was “no binding (tested: 300 nM)” throughout. Also, the EC50 in [18] was 0.12 nM and 0.18 nM and 0.17 nM.

The record behind these values is patent US20240301049A1 (Ablynx, published 2024).
